Patent US20210054054A1 (ROCKEFELLER UNIVERSITY, published 2021)
Where a chain is given by its changes, count along the chain named. In names and notes the source's numbering stands.

Key:
human CD4 receptor [1] = target: T1, human CD4 receptor (human, UniProt P01730 26-396); test: competition ELISA on CD4, competitor HRP-labeled wild type ibalizumab, pH 7.4
T1 construct: also called human CD4 protein

human CD4 receptor [2] = target: T1, human CD4 receptor; test: competition ELISA on CD4, competitor HRP-labeled wild type ibalizumab; fold reduced binding vs wt at pH 5.0 over that at pH 7.4

B1: ibalizumab LC S56H variant (antibody, human IgG1, kappa, V domains shown)
VH: QVQLQQSGPEVVKPGASVKMSCKASGYTFTSYVIHWVRQKPGQGLDWIGYINPYNDGTDYDEKFKGKATLTSDTSTSTAYMELSSLRSEDTAVYYCAREKDNYATGAWFAYWGQGTLVTVSS
VL: DIVMTQSPDSLAVSLGERVTMNCKSSQSLLYSTNQKNYLAWYQQKPGQSPKLLIYWASTREHGVPDRFSGSGSGTDFTLTISSVQAEDVAVYYCQQYYSYRTFGGGTKLEIKR
Human CD4 receptor [1]
  fold vs wt affinity at pH 7.4: 1.3 fold
Human CD4 receptor [2]
  pH 5.0/pH 7.4 differential: 0.8

B2: ibalizumab variant with a histidine mutation at residue Y92 in the light chain (antibody, human IgG1, kappa, V domains shown)
VH: B1 VH
VL: B1 VL with H62S, Y98H
notes: also called Y92H
Human CD4 receptor [1]
  fold loss of affinity vs wt at pH 7.4: > 2.6 fold
  fold reduced CD4 binding vs wt at pH 7.4: < 3 fold

B3: ibalizumab light chain S93/Y94 double histidine mutant (antibody, human IgG1, kappa, V domains shown)
VH: B1 VH
VL: B1 VL with H62S, S99H, Y100H
notes: also called combination of S93 and Y94; S93/Y94 double mutant
Human CD4 receptor [2]
  pH 5.0/pH 7.4 differential: 3

B4: ibalizumab light chain triple Y92H/S93H/Y94H variant (antibody, human IgG1, kappa, V domains shown)
VH: B1 VH
VL: B1 VL with H62S, Y98H, S99H, Y100H
Human CD4 receptor [2]
  pH 5.0/pH 7.4 differential: 3.4

B5: ibalizumab variant with a histidine mutation at residue S93 in the light chain (antibody, human IgG1, kappa, V domains shown)
VH: B1 VH
VL: B1 VL with H62S, S99H
notes: also called S93H
Human CD4 receptor [1]
  fold reduced CD4 binding vs wt at pH 7.4: < 3 fold

B6: ibalizumab variant with a histidine mutation at residue Y94 in the light chain (antibody, human IgG1, kappa, V domains shown)
VH: B1 VH
VL: B1 VL with H62S, Y100H
notes: also called Y94H; LC Y94
Human CD4 receptor [1]
  fold reduced CD4 binding vs wt at pH 7.4: < 3 fold
